We go through one molecule from patent publication US20030165995A1 (Takeda / Millennium, published 2003).

In assay [1] the target is T1, human Bonzo with N-terminal hemagglutinin (HA) epitope, expressed on transfected L1.2 cells (Bonzo/L1.2 cells) (human, UniProt O00574 1-342).
T1 construct: also called CXCR6; STRL33
T1 sequence: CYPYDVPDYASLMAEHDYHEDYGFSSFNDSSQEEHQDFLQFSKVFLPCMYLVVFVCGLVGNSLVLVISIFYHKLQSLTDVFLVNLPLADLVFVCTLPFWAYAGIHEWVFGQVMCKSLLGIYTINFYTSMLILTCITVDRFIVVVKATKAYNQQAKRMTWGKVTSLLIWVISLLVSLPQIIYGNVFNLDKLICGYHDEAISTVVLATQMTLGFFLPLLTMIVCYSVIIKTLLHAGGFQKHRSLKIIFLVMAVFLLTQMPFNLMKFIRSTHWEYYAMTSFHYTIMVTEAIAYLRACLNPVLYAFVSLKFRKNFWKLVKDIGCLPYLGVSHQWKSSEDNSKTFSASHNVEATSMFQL
The assay can be described thus: competition with 1 nM 125I-labeled SExCkine for binding to Bonzo/L1.2 cells, gamma counting. As for the experimental part: (§1) The amount of ¹²⁵I-labeled SExCkine (CXCL16) that bound to Bonzo/L1.2 cells was determined by scintillation counting, and % inhibition of binding (0% inhibition is the amount of binding in the absence of unlabeled SExCkine (CXCL16)) was calculated. […] FIG. 43B depicts the Scatchard analysis of the binding data.
(§2) Exponentially-growing Bonzo/L1.2 transfectants were counted on the day of the assay and were resuspended in binding assay buffer (BAB) (10 mM HEPES/1 mM CaCl₂/5 mM MgCl₂/0.5% BSA/0.05% Na Azide) at a density of 2.5×10⁶ cells/mL. Purified recombinant SExCkine (CXCL16) was labeled with I¹²⁵ using a sodium iodine method (Amersham, Arlington Heights, Ill.) and was diluted to 4 nM in BAB. Cold (unlabeled) SExCkine (in PBS at 5.3 μM) was diluted for competition in BAB to 0.4 nM, 2 nM, 4 nM, 20 nM, 40 nM, and 400 nM. […] For calculation of total I¹²⁵ input, 50 μL of cells was added to 25 μL of I¹²⁵I-labeled SExCkine and 25 μL BAB. All tubes were incubated for 1 hour at room temperature, after which time the cells were spun down at 3500 rpm and washed five times in BAB+0.5 M NaCl. After the final wash, the cell pellet was resuspended in 100 μL of wash buffer and the I¹²⁵ counts were calculated using a Cobra II auto-gamma scintillation counter (Packard, Downers Grove, Ill.) along with the total input sample. Binding data was calculated using a program written in Excel.

Assay [2] addresses T1, human Bonzo with N-terminal …. Briefly: Scatchard analysis of 125I-labeled SExCkine binding to Bonzo/L1.2 cells. As to the method:
as §1, §2

In assay [3] the target is T2, CCR7 expressed on transfected L1.2 cells (UniProt P32248 25-378, limits assumed).
T2 construct: whole, on cells
T2 sequence (looked up): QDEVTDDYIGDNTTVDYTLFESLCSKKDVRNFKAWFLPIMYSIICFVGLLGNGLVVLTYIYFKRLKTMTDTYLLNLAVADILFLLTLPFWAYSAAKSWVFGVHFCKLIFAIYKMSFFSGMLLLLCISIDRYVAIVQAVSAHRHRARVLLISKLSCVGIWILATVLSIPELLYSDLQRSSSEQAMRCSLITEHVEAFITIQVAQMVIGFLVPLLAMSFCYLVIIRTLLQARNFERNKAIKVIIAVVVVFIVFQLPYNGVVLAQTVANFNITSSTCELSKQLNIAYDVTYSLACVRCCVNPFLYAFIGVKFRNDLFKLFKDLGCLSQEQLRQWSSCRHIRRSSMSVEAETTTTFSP
The assay can be described thus: 125I-labeled SExCkine binding to receptor transfectants.

Assay [4] deals with T3, CCR6 expressed on transfected L1.2 cells (UniProt P51684 1-374, limits assumed).
T3 construct: whole, on cells
T3 sequence (looked up): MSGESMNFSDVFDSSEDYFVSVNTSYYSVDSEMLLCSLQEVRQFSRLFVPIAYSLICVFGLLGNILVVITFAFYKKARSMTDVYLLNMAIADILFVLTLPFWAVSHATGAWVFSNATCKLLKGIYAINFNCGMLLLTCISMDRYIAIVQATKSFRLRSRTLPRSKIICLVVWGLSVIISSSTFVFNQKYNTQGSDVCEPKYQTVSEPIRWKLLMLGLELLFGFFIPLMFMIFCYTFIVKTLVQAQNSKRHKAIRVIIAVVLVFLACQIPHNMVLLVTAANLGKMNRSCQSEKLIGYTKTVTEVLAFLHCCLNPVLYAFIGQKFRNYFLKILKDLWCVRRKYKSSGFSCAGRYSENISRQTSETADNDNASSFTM
Described as above.

B1: purified recombinant His-tagged SExCkine (entire predicted extracellular domain, amino acid residues 1 to 202 of SEQ ID NO:4) (ligand)
chain: NEGSVTGSCYCGKRISSDSPPSVQFMNRLRKHLRAYHRCLYYTRFQLLSWSVCGGNKDPWVQELMSCLDLKECGHAYSGIVAHQKHLLPTSPPISQASEGASSDIHTPAQMLLSTLQSTQRPTLPVGSLSSDKELTRPNETTIHTAGHSLAVGPEAGENQKQPEKNAGPTART
modifications: heavily glycosylated; iodinated with 125I where used as tracer
notes: Expressed in 293T cells, purified on wheat germ agglutinin and NiNTA; also called purified recombinant SExCkine (CXCL16); recombinant His-tagged SExCkine protein; not shown: C-terminal His tag from the pEF-His vector
As a reminder, the IC50 is the concentration that gives 50% inhibition. A lower IC50 goes with higher potency. One may read the Kd as a measure of binding affinity in units of concentration. Low readings indicate a tighter complex, high ones a looser complex. In assay [1], B1 came in with an IC50 of 1 nM. In addition, binding in assay [2] was put at a Kd of 1 nM. For the same molecule, the binding result in assay [3] and in assay [4] was “no binding” throughout.
